Paper PMC8977021, “bZIP transcription factors PcYap1 and PcRsmA link oxidative stress response to secondary metabolism and development in Penicillium chrysogenum”

T1: PcAtf21 del319-319 (Penicillium chrysogenum Wis54-1255 (P. rubens Wis54-1255)) (UniProt B6HLX5)
T1 sequence: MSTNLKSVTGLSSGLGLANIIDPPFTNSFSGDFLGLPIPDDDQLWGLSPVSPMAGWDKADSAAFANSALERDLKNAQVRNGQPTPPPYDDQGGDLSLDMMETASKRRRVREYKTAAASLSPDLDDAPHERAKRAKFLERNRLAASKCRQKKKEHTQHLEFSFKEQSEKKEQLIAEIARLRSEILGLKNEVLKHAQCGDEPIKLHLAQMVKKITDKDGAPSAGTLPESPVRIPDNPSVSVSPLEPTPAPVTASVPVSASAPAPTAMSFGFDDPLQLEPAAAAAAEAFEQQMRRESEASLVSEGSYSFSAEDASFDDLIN

T2: PcAtf21 (Penicillium chrysogenum Wis54-1255 (P. …, UniProt B6HLX5 1-318, del319-319))
T2 sequence: T1 sequence

B1: penDE-CRE123 (dsDNA)
DNA 1: AGGTCCTGCATTAGCGTACGCCCCAGGTTTAGATCAAAGTTACGTAATTTATATGTA
DNA 2: TACATATAAATTACGTAACTTTGATCTAAACCTGGGGCGTACGCTAATGCAGGACCT
B2: NorR4 (dsDNA)
DNA 1: TTTCAACATTTCTTGAGTACTTTTCTAAGCCGTGACATAATGAACGGATCA
DNA 2: TGATCCGTTCATTATGTCACGGCTTAGAAAAGTACTCAAGAAATGTTGAAA

Columns and labels:
[1] = molecular target: T1, PcAtf21 del319-319 (Penicillium chrysogenum Wis54-1255 (P. rubens Wis54-1255)); assay: EMSA; details: LightShift binding buffer 1X, about 10% glycerol, 5 mM MgCl2, 20 fmol biotin probe, 10 ug protein, 20 uL, room temperature 20 min; 5% native PAGE in 0.5X TBE …
PcAtf21 = molecular target: T2, PcAtf21; assay: EMSA; LightShift binding buffer 1X, about 10% glycerol, 5 mM MgCl2, 20 fmol biotin probe, 10 ug protein, 20 uL, room temperature 20 min; 5% native PAGE in 0.5X TBE; pH and salt not given; details: protein: recombinant; tags: C-terminal c-myc-6xHis; chain copies: 2; label: 3' biotin; blunt

Molecule | binding [1] | binding result (PcAtf21)
AACATCGCCGTCGTTGAGTGCACGTTGCCTACTCTCTCGTGGCTTGGCTGGGCCCACGAGCCCGATTGACTCGACGGTGTTACTTGGGTATCTATGGCCCCGTTTTCTGGCACGGTAATGATAAGTACTTACTAGTCTTCGAGCGGGGGAGTGTTGCTCTGCCCGAGCATCAACGATTGGCCTGA (double strand) [probe 4] | no binding | 
TGTTTATGCTGAGACAACCTGGAGACATTATACGCTTGCAGCCCAGATGCTTACTGGATGGGGCCGCTGGAGCCAGTGTAAAATTAGTAACCGTATCTCGAAGTCGGAGGGTCTTTGGTGGTCTGAGATTTCAGTCGGTCCGCACCGTGGCATTTGCAGACGGTGCGATCAGGCCAATCGTTGATGCTCGG (double strand) [probe 5] | no binding | 
B1 |  | no binding
B2 |  | binds
